From patent publication US20090123479A1 (published 2009) come the findings set out here.

Changes are numbered by the printed parent chain.

One assay concerns the target T1, Endogenous human IL-23 (human, UniProt Q9NPF7 20-189; P29460 23-328).
T1 construct: also called endogenous human IL-23 from stimulated dendritic cells
T1 sequence 1: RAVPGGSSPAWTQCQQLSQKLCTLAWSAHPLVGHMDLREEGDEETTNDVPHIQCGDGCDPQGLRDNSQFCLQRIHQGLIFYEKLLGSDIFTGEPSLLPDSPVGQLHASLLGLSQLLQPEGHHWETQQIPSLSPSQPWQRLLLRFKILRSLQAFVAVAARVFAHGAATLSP
T1 sequence 2: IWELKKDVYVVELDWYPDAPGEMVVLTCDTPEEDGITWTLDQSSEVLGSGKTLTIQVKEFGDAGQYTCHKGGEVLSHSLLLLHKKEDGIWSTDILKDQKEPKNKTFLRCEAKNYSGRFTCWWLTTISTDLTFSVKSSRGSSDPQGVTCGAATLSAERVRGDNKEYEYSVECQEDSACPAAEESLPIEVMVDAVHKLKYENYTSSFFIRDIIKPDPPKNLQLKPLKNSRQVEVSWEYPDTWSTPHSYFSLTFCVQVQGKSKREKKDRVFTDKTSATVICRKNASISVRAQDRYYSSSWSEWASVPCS
The experiment in a line: receptor inhibition ELISA: plate coated with recombinant human IL-23 receptor, endogenous human IL-23 at 3.5 ng/ml pre-incubated with titrated purified antibody, bound IL-23 detected with biotinylated anti-human IL-12; 1% BSA. On the procedure:
Recombinant human IL-23 Receptor (R&D systems 1400-IR-050) was coated onto 96 well plates at a concentration of 1 μg/ml. Endogenous human IL-23 at 3.5 ng/ml final, was pre incubated for 1 hour with a titration of purified antibody material before being added to the pre-coated plates. Detection was performed with biotinylated anti-human 1L12 (R&D systems BAF-219) followed by Streptavidin-HRP (GE Healthcare RPN 4401). This neutralisation ELISA used 1% BSA.
For orientation: In an ELISA, binding on a coated surface is turned into a signal by an enzyme label.

The target of assay [1] is T2, recombinant human IL-23 (human, UniProt Q9NPF7 20-189; P29460 23-328).
T2 construct: also called hIL-23
T2 sequence 1: T1 sequence 1
T2 sequence 2: T1 sequence 2
The experiment in a line: IL-23/IL-23R inhibition ELISA (optimised protocol, OD450): plate coated with human IL23R Fc chimera, antibody pre-incubated with constant human IL-23, bound IL-23 detected with biotinylated anti-human IL-12; purified antibody.

Assay [2] addresses T3, recombinant cynomologus IL-23 (cynomolgus, limits assumed).
T3 construct: also called cynomolgus IL-23; cyno IL23
T3 chain 1: T1 sequence 1 with T12A, H75R, L131P
T3 chain 2: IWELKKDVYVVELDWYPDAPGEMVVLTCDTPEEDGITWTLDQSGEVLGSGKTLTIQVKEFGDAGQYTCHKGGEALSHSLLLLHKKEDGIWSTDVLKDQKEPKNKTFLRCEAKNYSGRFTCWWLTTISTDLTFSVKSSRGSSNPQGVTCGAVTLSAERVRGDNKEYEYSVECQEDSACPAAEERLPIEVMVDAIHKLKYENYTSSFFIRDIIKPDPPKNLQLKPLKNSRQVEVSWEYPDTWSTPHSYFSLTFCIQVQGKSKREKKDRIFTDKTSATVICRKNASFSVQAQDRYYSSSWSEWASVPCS
The experiment in a line: IL-23/IL-23R inhibition ELISA (optimised protocol, OD450): plate coated with human IL23R Fc chimera, antibody pre-incubated with constant cynomolgus IL-23, bound IL-23 detected with biotinylated anti-human IL-12; purified antibody. On the procedure: Optimised protocol: Plates were coated with human IL23R Fc chimera at […] (phosphate buffered saline). 50 μl/well of this mixture was incubated overnight at 4° C. The plates were then washed three times with Phosphate Buffered Saline with 0.05% Tween 20 (PBST). Plates were blocked with 4% skim milk powder (Fluka BioChemika #70166) PBST 100 μl/well for a minimum of 1 hour at room temperature. The plates were then washed three times with Phosphate Buffered Saline+0.05% Tween 20 (PBST). Various concentrations of antibody were incubated in a separate plate with a constant concentration of IL-23 for 1 hour at room temperature. 50 ul of each mixture were transferred to the assay plate and incubated at RT for 1 hr. They were then washed three times with Phosphate Buffered Saline+0.05% Tween 20 (PBST). Bound IL23 was detected by anti human 1L12 Biotin labelled Ab (R&D systems BAF219) diluted to 100 ng/ml in 4% skim milk powder (Fluka BioChemika #70166) PBST. 50 μl/well of the biotinylated antibody was added and incubated at RT for 1 hour. The plates were then washed three times with Phosphate Buffered Saline+0.05% Tween 20 (PBST). SA HRP (GE healthcare RPN4401) was diluted 1/4000 in 4% skim m ilk powder (Fluka BioChemika #70166) PBS, 50 μl/well was added to the plates. The plates were then washed three times with Phosphate Buffered Saline+0.05% Tween 20 (PBST). 50 ul/well of TMB was added to the plates and incubated at RT for 15 min. 25 μl/well of 3 MH₂SO₄ was added to the wells already containing TMB. The plate was read at OD450 nm using the SOftmaxPRO versamax plate reader.

For assay [3], the target named is T2, recombinant human IL-23. The experiment in a line: SPR (Biacore T100), purified antibody captured on anti-human IgG, IL-23 analyte (different source of IL-23), 1:1 model. The protocol:
Biacore analysis was carried out using a capture surface on a CM5 chip. Anti-human IgG (BR-1008-39) was used as the capturing agent. Anti-human IgG was coupled to a CM5 biosensor chip by primary amine coupling. Humanized antibody was captured on this immobilised surface and defined concentrations of IL-23 were passed over this captured surface. An injection of buffer over the captured antibody surface was used for double-referencing. […] T100 Biacore machine was used to generate the data; all runs were carried out at 25° C. using HBS EP. Data was analysed using the software inherent to the machine and fitted to the 1:1 model of binding. Tables 7 and 8 detail the IL-23 binding analysis carried out on the 8C92H6.HC1LC1 chimera and selected humanized variants in two separate experiments. Data presented in Tables 7 and 8 are from purified antibody samples. The data shown for the humanized variants is representative of a number of runs. The chimeric mAb (8C9H6.HC1LC1) was only run once in each experiment, so data shown for this mAb is from that one run.

B1: chimeric 8C92H6 HC1LC1 (antibody, V domains shown)
VH: QVQLQQSGAELARPGTSVKLSCKASGYTFTSYGITWVKQRTGQGLEWIGENYPRSGNTYYNEKFKGKATLTADKSSSTAYMELRSLTSEDSAVYFCARCEFISTVVAPYYYALDYWGQGTSLVTVS
VL: DIVLTQSPASLAVSLGQKATISCKASKKVTIFGSISALHWYQQKPGQPPKLIYNGAKLESGVSARFSDSGSQNRSPFGNQLSFTLTIDPVEADDAATYYCLQNKEVPYTFGGGTKLEIKR
notes: Murine variable regions with human constant regions; also called 8C92H6.HC1LC1 Chimera; 8C9 chimera
For B1, the “IC50 (read off the curve)” value with Endogenous human IL-23 was approximately 0.1 µg/mL. In addition, the “IC50 (read off the curve)” value in the assay with recombinant human IL-23 [1] was approximately 2 nM. For the same molecule, in assay [2], the “IC50 (read off the curve)” value is approximately 2 nM. In addition, in the assay with recombinant human IL-23 [3], the Kd (usually the constant that tells how readily two partners part at equilibrium) amounted to 0.364 nM; the koff (commonly a measure of how fast the partners let go of each other) stood at 0.000337 s⁻¹; the kon (as a rule, a measure of how fast the partners come together) turned out to be 925000 M⁻¹ s⁻¹.

B2: A3M0 (antibody, human IgG1, kappa, V domains shown)
VH: QVQLVQSGAEVKKPGSSVKVSCKASGYTFTSYGITWVRQAPGQGLEWMGENYPRSGNTYYNEKFKGRVTITADKSTSTAYMELSSLRSEDTAVYYCARSEFISTVVAPYYYALDYWGQGTLVTVSS
VL: DIVMTQSPDSLAVSLGERATINCKASKKVTIFGSISALHWYQQKPGQPPKLIYNGAKLESGVPDRFSGSGSGTDFTLTISSLQAEDVAVYYCLQNKEVPYTFGGGTKVEIKR
notes: Full length chains; also called humanized mAb A3M0
In the case of B2, in the assay with Endogenous human IL-23, the “IC50 (read off the curve)” value is approximately 0.005 µg/mL. Also, the “IC50 (read off the curve)” value in the assay with recombinant human IL-23 [1] was approximately 0.5 nM. In addition, the “IC50 (read off the curve)” value in assay [2] was approximately 0.7 nM. In addition, in the assay with recombinant human IL-23 [3], the Kd amounted to 0.19 nM, the koff amounted to 0.00024 s⁻¹ and the kon was determined as 1.27e+06 M⁻¹ s⁻¹.
